Results taken from PMC8031885.

How the values were obtained:
[1] = molecular target: gH/gL/gO trimer of HCMV TB40-BAC4 (human cytomegalovirus, strain TB40/E (TB40-BAC4))
PDGF-BB [2] = molecular target: PDGF-BB (UniProt P01127)
PDGF-BB [3] = molecular target: PDGF-BB (UniProt P01127); remark: listed apart in the source
[4] = molecular target: gH/gL/gO trimer of HCMV TB40-BAC4 (human cytomegalovirus, strain TB40/E (TB40-BAC4)); remark: listed apart in the source
[5] = molecular target: gH/gL/gO trimer of HCMV TB40-BAC4 (human cytomegalovirus, strain TB40/E (TB40-BAC4)); remark: listed apart in the source

PDGF-BB, sequence (P01127 82-190): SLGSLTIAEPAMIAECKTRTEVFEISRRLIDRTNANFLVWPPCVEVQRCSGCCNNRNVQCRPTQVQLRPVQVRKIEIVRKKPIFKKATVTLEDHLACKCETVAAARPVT
PDGFRα-Fc delM133-I139, sequence (P16234 other isoform, or with tags, fused parts or gaps, stated change not applied): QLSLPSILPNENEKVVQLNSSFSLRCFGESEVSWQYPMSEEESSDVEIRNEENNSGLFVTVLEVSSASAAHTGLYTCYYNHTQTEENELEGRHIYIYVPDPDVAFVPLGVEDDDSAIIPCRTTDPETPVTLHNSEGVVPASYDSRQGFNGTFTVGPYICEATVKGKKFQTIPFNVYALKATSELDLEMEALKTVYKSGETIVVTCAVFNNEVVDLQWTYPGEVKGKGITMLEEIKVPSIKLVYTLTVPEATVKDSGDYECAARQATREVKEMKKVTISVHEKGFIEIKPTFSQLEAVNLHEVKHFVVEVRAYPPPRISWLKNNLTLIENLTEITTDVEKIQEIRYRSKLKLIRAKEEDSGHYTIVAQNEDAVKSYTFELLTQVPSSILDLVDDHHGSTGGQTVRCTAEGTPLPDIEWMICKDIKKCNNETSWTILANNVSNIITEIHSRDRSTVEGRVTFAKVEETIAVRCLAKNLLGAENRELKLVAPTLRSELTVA
PDGFRα-Fc delN204-Y206, sequence (P16234 other isoform, or with tags, fused parts or gaps, stated change not applied): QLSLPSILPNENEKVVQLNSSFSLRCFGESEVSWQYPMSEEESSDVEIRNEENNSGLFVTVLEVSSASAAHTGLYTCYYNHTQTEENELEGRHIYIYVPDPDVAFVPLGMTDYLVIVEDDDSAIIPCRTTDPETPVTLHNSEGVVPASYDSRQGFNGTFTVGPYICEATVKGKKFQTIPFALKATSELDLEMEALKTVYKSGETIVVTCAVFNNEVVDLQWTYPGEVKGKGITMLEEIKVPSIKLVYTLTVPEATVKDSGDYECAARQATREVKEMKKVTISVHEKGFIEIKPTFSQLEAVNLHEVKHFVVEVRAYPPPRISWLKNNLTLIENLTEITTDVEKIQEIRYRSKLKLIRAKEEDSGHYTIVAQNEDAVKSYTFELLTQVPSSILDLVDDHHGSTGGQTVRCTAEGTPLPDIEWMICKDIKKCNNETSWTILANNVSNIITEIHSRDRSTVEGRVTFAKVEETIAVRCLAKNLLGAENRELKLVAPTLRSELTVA
PDGFRα-Fc delQ294-E298, sequence (P16234 other isoform, or with tags, fused parts or gaps, stated change not applied): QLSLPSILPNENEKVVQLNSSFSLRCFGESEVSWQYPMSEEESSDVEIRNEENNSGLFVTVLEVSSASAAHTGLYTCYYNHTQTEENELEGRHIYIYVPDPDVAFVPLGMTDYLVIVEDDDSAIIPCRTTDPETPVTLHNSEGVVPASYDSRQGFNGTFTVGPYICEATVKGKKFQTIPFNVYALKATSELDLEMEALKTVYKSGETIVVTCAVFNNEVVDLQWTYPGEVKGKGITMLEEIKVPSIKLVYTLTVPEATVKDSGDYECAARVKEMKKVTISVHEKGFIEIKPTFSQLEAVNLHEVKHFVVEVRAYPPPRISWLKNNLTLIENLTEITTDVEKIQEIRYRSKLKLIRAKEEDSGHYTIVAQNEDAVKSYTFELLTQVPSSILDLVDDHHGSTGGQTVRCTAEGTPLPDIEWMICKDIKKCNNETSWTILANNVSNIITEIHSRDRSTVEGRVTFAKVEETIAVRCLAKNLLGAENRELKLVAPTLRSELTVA

PDGFRα-Fc E298A (from UniProt P16234-1 24-528) (Fc fusion)
inhibition of HCMV TB40-BAC4-IE-GLuc infection of fibroblasts (Gaussia luciferase read-out), against wild type (fold increase of the inhibitory effect) [1]: 3

PDGFRα-Fc I139A (from UniProt P16234-1 24-528) (Fc fusion)
reduction of Akt phosphorylation induced by 50 ng/ml PDGF-BB in fibroblasts, phospho-Akt immunoblot, 4,000 ng/ml PDGFRα-Fc (PDGF-BB [2]): 20% | inhibition of HCMV TB40-BAC4-IE-GLuc infection of fibroblasts (Gaussia luciferase read-out), against wild type (fold decrease of the efficiency) [1]: 4 | reduction of p-Akt signal induced by 6 ng/ml PDGF-BB in fibroblasts, quantitative immunoblot, 4000 ng/ml PDGFRα-Fc (PDGF-BB [3]): 80%

PDGFRα-Fc I139L (from UniProt P16234-1 24-528) (Fc fusion)
HCMV inhibition EC50 (TB40-BAC4-IE-GLuc, fibroblasts, immediate-early antigen staining) [4]: 6.6 ng/mL

PDGFRα-Fc I139V (from UniProt P16234-1 24-528) (Fc fusion)
HCMV inhibition EC50 (TB40-BAC4-IE-GLuc, fibroblasts, immediate-early antigen staining) [4]: 9.5 ng/mL

PDGFRα-Fc Q294A (from UniProt P16234-1 24-528) (Fc fusion)
inhibition of HCMV TB40-BAC4-IE-GLuc infection of fibroblasts (Gaussia luciferase read-out), against wild type (fold increase of the inhibitory effect) [1]: 3

PDGFRα-Fc T296A (from UniProt P16234-1 24-528) (Fc fusion)
inhibition of HCMV TB40-BAC4-IE-GLuc infection of fibroblasts (Gaussia luciferase read-out), against wild type (fold increase of the inhibitory effect) [1]: 3

PDGFRα-Fc Y206A (from UniProt P16234-1 24-528) (Fc fusion)
reduction of Akt phosphorylation induced by 50 ng/ml PDGF-BB in fibroblasts, phospho-Akt immunoblot, 4,000 ng/ml PDGFRα-Fc (PDGF-BB [2]): 60% | inhibition of HCMV TB40-BAC4-IE-GLuc infection of fibroblasts (Gaussia luciferase read-out), against wild type (fold decrease of the efficiency) [1]: 4

PDGFRα-Fc Y206F (from UniProt P16234-1 24-528) (Fc fusion)
HCMV inhibition EC50 (TB40-BAC4-IE-GLuc, fibroblasts, immediate-early antigen staining) [4]: 5.9 ng/mL

PDGFRα-Fc delM133-I139 (from UniProt P16234-1 24-528) (Fc fusion)
inhibition of HCMV TB40-BAC4-IE-GLuc infection of fibroblasts (Gaussia luciferase read-out), 4,000 to 1 ng/ml; EC50 against wild type (fold higher EC50 than wild type) [5]: 10

PDGFRα-Fc delN204-Y206 (from UniProt P16234-1 24-528) (Fc fusion)
inhibition of HCMV TB40-BAC4-IE-GLuc infection of fibroblasts (Gaussia luciferase read-out), 4,000 to 1 ng/ml; EC50 against wild type (fold higher EC50 than wild type) [5]: 10

PDGFRα-Fc delQ294-E298 (from UniProt P16234-1 24-528) (Fc fusion)
inhibition of HCMV TB40-BAC4-IE-GLuc infection of fibroblasts (Gaussia luciferase read-out), 4,000 to 1 ng/ml; EC50 against wild type (fold higher EC50 than wild type) [5]: 10
